Measured values taken from article PMC10876603.

Target: microtubules (polymerised α/β-tubulin) (UniProt Q6B856)
UniProt Q6B856, sequence (Q6B856 whole entry, looked up): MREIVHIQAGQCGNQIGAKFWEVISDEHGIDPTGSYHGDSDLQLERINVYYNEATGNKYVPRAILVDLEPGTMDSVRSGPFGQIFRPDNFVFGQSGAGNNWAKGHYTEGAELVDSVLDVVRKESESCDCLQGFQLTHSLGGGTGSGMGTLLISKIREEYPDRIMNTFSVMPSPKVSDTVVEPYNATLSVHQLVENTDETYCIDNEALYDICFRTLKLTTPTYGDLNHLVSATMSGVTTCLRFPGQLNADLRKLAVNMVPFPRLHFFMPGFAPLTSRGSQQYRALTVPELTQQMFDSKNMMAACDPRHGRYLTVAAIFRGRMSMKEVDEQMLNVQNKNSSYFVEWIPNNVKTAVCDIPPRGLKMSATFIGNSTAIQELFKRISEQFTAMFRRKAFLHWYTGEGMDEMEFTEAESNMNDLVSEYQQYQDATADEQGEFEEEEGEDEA

## human CEN subcomplex with Borealin R17E, R19E, K20E (CEN-Borealin^MTBM) (from UniProt Q9NQS7 1-58; O15392 1-142; Q53HL2 1-280)
  width of bundles of GMpCpp-stabilized rhodamine-labeled MTs (100 nM) after 2 min with 4 μM CEN, TIRF microscopy (single GMpCpp MTs measure 0.34 μm): 0.36 μm
